Biological target: the molecule itself
Test: crystal structure

B1: SrpA sialoglycan binding region (SrpABR), tag cleaved, as crystallised (domain or fragment)
chain: RRATDTTPPTITVPSDIIAYRGEEFEFYFEITDDSGQVKNIELSTFGKPLGLNWLEYSEDNFNVPGNATSDNPLRVRVHGTVPLNEPIPADKNRAQFTRTIRAWDAAGNVSSNITFVIKYRAQTDKYNPADPTITYVDRLSSLSPSEKNAVEAAVRAANPQIPAAARITVSANGTVTITYPDSSTDTITANRVVKDLASSR
stoichiometry N: 2

Source: paper PMC5388602 (Biochemistry, 2016)
